Assay results: doi:10.1101/2021.04.18.440036 (bioRxiv, 2021)

Biological target: protective antigen (PA) prepore (Bacillus anthracis V770-NP1-R (ATCC …, UniProt P13423))
Experiment: cryo-EM structure

Chain of protective antigen (PA) prepore (Bacillus anthracis V770-NP1-R (P13423 whole entry, looked up): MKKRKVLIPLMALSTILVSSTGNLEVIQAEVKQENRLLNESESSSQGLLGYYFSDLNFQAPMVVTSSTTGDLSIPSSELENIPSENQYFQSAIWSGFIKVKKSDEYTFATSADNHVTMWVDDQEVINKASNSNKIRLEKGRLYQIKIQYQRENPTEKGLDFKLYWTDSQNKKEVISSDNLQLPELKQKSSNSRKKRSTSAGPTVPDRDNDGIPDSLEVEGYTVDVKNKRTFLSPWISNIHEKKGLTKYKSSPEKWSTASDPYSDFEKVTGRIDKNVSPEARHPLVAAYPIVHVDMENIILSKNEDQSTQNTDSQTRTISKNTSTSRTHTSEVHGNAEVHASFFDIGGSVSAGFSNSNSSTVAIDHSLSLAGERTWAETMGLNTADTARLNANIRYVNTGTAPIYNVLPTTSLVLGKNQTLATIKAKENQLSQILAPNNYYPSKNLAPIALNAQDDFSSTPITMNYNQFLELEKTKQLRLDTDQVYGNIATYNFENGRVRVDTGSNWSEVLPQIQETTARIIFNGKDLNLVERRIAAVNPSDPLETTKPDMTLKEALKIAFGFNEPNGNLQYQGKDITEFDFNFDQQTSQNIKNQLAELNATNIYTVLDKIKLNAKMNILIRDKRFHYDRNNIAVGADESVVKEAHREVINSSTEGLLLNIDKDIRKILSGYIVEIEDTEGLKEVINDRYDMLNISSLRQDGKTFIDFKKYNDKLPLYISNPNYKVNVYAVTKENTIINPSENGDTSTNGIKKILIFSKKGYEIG

B1: cAb29 Fab (Fab, V domains shown)
VH: QVQLQQSGAELVKPGASVKMSCKASGYIFTNYNMHWVQQTPGQGLEWIGAIYPRTGDTSYNQKFKGKATLTADKSSSTAYMQLSSLTSEDSAVYYCARDGFAYWGQG
VL: DIQMTQTTSSLSASLGDRVTISCRASQDISNYLNWYQQKPDGTVKLLIYYTSRLHSEVPSRFSGSGSGTDYSLTISNLEEEDIATYFCQQGKTLPWTFGGG
**Q.** Does B1 bind?
**A.** Result: binds
